This note sets out measurements from article PMC6226434.

Assay [1] addresses human ETB receptor, wild type, codon-optimized construct with an internal FLAG epitope tag (human) (UniProt P24530).
Assay [2] addresses human ETB receptor L252H I254T double mutant (human) (UniProt P24530).
In assay [3] the target is human ETB receptor, wild type, codon-optimized construct with an internal FLAG epitope tag (human) (UniProt P24530). The source holds these as a separate data set.
Assay [4] has as its target thermostabilized human ETB receptor (ETB-Y5), construct with an internal FLAG epitope tag (human) (UniProt P24530).
In assay [5] the target is ETB-Y5 with SmBiT at the C-terminus (thermostabilized human ETB receptor) (human) (UniProt P24530).
In assay [6] the target is ETB-SmBiT construct (human ETB receptor with SmBiT at the C-terminus) (human) (UniProt P24530).
Assay [7] deals with T1, full-length human ETA receptor construct with an internal FLAG epitope tag (human) (UniProt P25101).
T1 sequence: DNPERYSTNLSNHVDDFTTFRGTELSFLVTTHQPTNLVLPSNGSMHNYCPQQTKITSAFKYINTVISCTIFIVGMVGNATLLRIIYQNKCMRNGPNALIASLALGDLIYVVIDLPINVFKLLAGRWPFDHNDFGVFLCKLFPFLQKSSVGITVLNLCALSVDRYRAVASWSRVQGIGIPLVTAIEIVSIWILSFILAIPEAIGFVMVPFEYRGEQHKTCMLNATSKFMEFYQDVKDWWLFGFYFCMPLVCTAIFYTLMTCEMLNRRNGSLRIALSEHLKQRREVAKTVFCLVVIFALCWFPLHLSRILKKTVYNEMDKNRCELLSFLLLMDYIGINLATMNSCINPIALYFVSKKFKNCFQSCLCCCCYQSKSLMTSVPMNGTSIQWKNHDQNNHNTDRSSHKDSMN

Assay [8] deals with T2, ETA-SmBiT construct (human ETA receptor with SmBiT at the C-terminus) (human) (UniProt P25101).
T2 sequence: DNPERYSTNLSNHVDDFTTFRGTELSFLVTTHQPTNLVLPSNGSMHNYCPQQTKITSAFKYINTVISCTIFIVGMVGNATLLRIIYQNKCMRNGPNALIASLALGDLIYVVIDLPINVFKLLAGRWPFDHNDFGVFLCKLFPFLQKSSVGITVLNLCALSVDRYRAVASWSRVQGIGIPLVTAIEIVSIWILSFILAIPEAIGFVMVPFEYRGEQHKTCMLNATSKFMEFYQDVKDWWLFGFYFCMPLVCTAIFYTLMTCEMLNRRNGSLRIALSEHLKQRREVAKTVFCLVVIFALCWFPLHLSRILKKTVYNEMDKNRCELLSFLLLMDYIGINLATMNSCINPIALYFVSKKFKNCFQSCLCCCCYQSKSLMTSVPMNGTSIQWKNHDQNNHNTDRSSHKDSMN

With “IRL1620 (N-Suc-[E9, A11, 15] ET-1(8-21)) (peptide)”, the AP-TGFα release (TGFα shedding assay), EC50; experiment with the double mutant in assay [1] turned out to be 0.14 nM. In addition, the AP-TGFα release (TGFα shedding assay), EC50 in assay [2] is 0.32 nM; in assay [3], 0.11 nM; in assay [4], 0.92 nM. The AP-TGFα release (TGFα shedding assay), Emax relative to ET-1 is 87.6% in assay [3] and 83.6% in assay [4]. Further, the β-arrestin recruitment (NanoBiT, receptor-SmBiT with m12), EC50 is 15.1 nM in assay [5] and 3.1 nM in assay [6]. Moreover, the values for the β-arrestin recruitment (NanoBiT, receptor-SmBiT with m12), Emax relative to ET-1 in assay [5] and in assay [6] were 85.4% and 87.3%, respectively.

With CTCFTYKDKECVYYCHLDIIW [endothelin-3], the AP-TGFα release (TGFα shedding assay), EC50 in assay [3] stood at 0.13 nM; in assay [7], 0.65 nM; in assay [4], 0.077 nM. The AP-TGFα release (TGFα shedding assay), Emax relative to ET-1 in assay [3] was determined as 100%; in assay [7], 101%; in assay [4] it was 101%. Further, the β-arrestin recruitment (NanoBiT, receptor-SmBiT with m12), EC50 turned out to be 10.8 nM in assay [8], 3.5 nM in assay [5] and 3.3 nM in assay [6]. Moreover, the β-arrestin recruitment (NanoBiT, receptor-SmBiT with m12), Emax relative to ET-1 in assay [8] is 81.1%; in assay [5] it was 105%; in assay [6], 105%.
